{"source": "patent US20150018278", "key": {"[1]": {"system": "constitutively active form of chicken E2F4 (Thr261Glu/Thr263Glu)", "sequence (chain, as listed by the source T261E T263E)": "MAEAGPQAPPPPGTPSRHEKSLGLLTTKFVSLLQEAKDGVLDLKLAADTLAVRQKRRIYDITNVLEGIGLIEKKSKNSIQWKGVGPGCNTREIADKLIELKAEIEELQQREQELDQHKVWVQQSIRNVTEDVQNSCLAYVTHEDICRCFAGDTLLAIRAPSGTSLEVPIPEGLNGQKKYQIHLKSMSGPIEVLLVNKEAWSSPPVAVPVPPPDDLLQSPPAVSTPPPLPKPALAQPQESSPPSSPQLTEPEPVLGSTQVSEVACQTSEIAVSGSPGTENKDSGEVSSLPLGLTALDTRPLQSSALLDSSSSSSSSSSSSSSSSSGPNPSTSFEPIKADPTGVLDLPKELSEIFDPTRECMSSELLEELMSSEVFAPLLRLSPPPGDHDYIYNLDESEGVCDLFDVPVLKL"}, "[2]": {"system": "chicken transcription factor E2F4", "sequence (chain, as listed by the source)": "as the sequence (chain, as listed by the source T261E T263E) above, with E249T, E251T counted along it"}, "[3]": {"system": "negative dominant form of chicken E2F4 (Thr261Ala/Thr263Ala)", "sequence (chain, as listed by the source T261A T263A)": "as the sequence (chain, as listed by the source T261E T263E) above, with E249A, E251A counted along it"}}, "data": [{"substance": "p38^MAPK", "values": [{"measurement": "incorporation of BrdU", "setting": "[1]", "value": "The incorporation of BrdU increases significantly in cells transfected with the constitutively active form of E2F4 (E2F4-CA), an effect that can be observed even in the presence of selective p38^MAPK inhibitor SB203580 (used at 5 µM)"}, {"measurement": "phosphorylation on threonine residues of E2F4 (Western blot with anti-phosphoThr antibodies in extracts immunoprecipitated with anti-E2F4 antibodies)", "setting": "[2]", "value": "The presence of NGF can be seen to involve an increase in phosphorylation on threonine residues, while the presence of p38^MAPK inhibitor inhibits such phosphorylation."}, {"measurement": "incorporation of BrdU", "setting": "[3]", "value": "The expression of the negative dominant form of E2F4 (E2F4-ND) prevents the effect of 100 ng/ml NGF on the incorporation of BrdU in retinal neurogenic cultures."}]}]}
